According to the DeepSol protein solubility set:

Experiment: soluble on expression in E. coli; label from the status in PepcDB or PDB records

Soluble on expression in E. coli, not soluble:
MGSDKIHHHHHHMTLATMKLQILSDLHIDSYVRQSHPIGHIPKTDADIVLVAGDTANSDIGMPWLQEQAARLQVPLITIAGNHEYFNEDVLHFDKKLATWDNYDSESKQGVQFLQCQYIDIGEVRILGCTLWTDYQYQANEDTMVAALRFMRDYKQIYAGSELFSPEVSMQIHAKQRQWLKQALITAKALGKKTVVMSHHSISPLSVSEKYANLPSNAAFVSDLSQWMYEDWAPALWVHGHTHEAFDYHIHKTRVIVNPRAYPNEVSSTALAFAWDRVIDIG, MGSDKIHHHHHHMTLDPDAKLPETEEGTVVYNTDPLIIRSHYEIDYIHSYAQDSEFFRALGRKKLMGSKCKKCGYVYATPRSHCMMCGSETEWYELPLKGRVHTYTTCYFSGEEFLNETPFNLILVEFDGVNSLFMSRLIGAETKDIYIGMPVKAKFRRNLKMNVTDVYFVPDVEK, MGSDKIHHHHHHMTLINKLKQHLSDSQITQAQLAREAGVNAGALSAYLNDNYKGNIADVEAKLAAYLEKKAVQAREFVEAPAFIETATSRQIFKTLEFAQIANCLATVYGMSGVGKTKAIQEFAKSHANVWLVTASPSRSSLSEILYEIALELGISDAPRRKGTLSRLIARKIKGTEGLLIVDEADHLPYEALEELRIMQEEAGIGLVLVGNDKVYTRMKGGISPSHEYARLWSRVAKNTSIQKTKKADTQAVAQAWGLETDEEALKVMQSITETGGGLRILTQTYACRNGSKRIWQVD, MGSDKIHHHHHHMTLKDIAEMAGVSTMTVSNVINGKTSRVSQKTRDKINSIIEEYNYVPNMNARSLSNNSSHIIGVVTFLEEKEYASGYNYFENPYVSTMIGTIETELHKNGYFTMLQSVSRSSDILSLVKNWNVDGMILVFPTSAQNLEKLMDAANCPIATFDSNYSHPNLINVISDDEKGLYLSTKYMINHGHTEIAFVADYEGNIVLTKRFNGYKKALEDSHIPFRPEYIFSYPPSYEGGIEAGRAIAGSKSPITAVVTTADICAIGIMEGARLGGYRVPIDLSVIGYDNLNLCQYTVPKLTSVSQNVPKKARLATELLLKKIHDNESDSNLGEIIDVEIVDRQSVISLY, MGSDKIHHHHHHMTLNNLEIDTLVVGAGQAGVAMSEHLSKLGVPHLVLERNRIAQAWRTGRWDSLVANGPAWHDRFPGLEFNLDADAFAGKDQVADYFEQYVRKYNLPVRTGIEVKRVVRNSDRPGFTIDTSEGVIRANRVVAATGPFQKPVIPAIAPKDSNLHQIHSAAYFNPEQLPEGAVLVVGAGSSGVQIAEELMRAGRQVYLSVGAHDRPPRAYRNRDFCWWLGVLGEWDAEIAKPGREHVTIAVSGARGGHTVDFRALAHQGMTLVGLTQSFENGVARFQDNLVENINRGDDNYLALLDAADAYIERNGLDLPEEPEARQRLADPECMRNPLQQLDLAKAGVSSIIWATGYGVDFSWLQVDTFDANGKPQHQRGVAREPGVYFLGLPWLSRRGSSFIWGVWHDAKHVAGHIATQRTYTAYRDREQRAADEQQTAKISNVSTLGAH, MGSDKIHHHHHHMTNKTNAASLDIVGIGNAIVDVLTTTDDSFLKKLSFDKGSMTLIDEKKAKELYEMTTNRIQKSGGSVANSLACVAQLGGKAAFIGRVRDDKLGEIFTEEISTTGTIFKTPPSSVGPSTARCIIFVTPDAQRTMCTYLGASVLLEPKDIDLSLVREAKILYLEGYLWDNPAAKNAFIKAAEIAKNAGRKVALSLSDSFCVSRHRESFIKLVEEHIDILFANEDEITNLYETSSLSNALEKLKKKCDLAAITIGEKGSILISNGKEIKIDPFILGKAIDTTGAGDLYAGAFLKGYADGLKPELSAKIGSICAGQIVTQLGSRSNTDLLNLINSHLEA, MGSDKIHHHHHHMTNNRLERFAHNLDWNLLRTFVVVVEEGSITAAANRLLLQQPAVSMALKRLEQTIGQKLIDRRPGRFDLTEAGEKLHLQCRDIFAAVIRLPHVLETAGEEITGHLNIHAVSHAHNPAWDRKLGSFFRMHPKVTISMTVATTVDVLSAVERNIATMGLCDGIIPEGLNKSFHIRERYALYCGRGHRLFGVEGVVFHDLRGDPYIAFIADVLGGQHMNSVTAVRAVGSFGQQVRGVSCNVEEVMRLIAANVGIGMLPDHIASEAVAAGDLWQLPPYRDLPTTDVFRISNPNSILNPAEAAFLAHVADTQALDHCHHQQD, MGSDKIHHHHHHMTNQLLSEQWFEHQAKVTEAIGRPGFAASLFAALGVIRPIQATTVYLYPHDGMPCALFEQDDKAPWQPEGNVSRYLSGFYLLDPFYGACVEQVESGCYGLFEVAPDHFEVSEYYQSFYRHSHLEDELNYILQVAPGQSLAVSLAFTDKLDGQSRTRFGLITPWVLAVLGKHFAGLDSRAGRFENILEQRIHAALNNFGSSLLTERECRIAQLILRGHSTKSLAERLGVSEDTIKSHRKNVYAKLDIGTQSELFSLFIDALANAQGVLGKDPLESYMGKLR, MGSDKIHHHHHHMTNQTQSMALMVPQSSSSLEAYIHSAHNIPMLEANEEYELAKRLQETGDIQAAKQLIMSHLRFVIHVAKGYAGYGLPQADLIQEGNIGLMKAVKRFDPDVGVRLVSFAVHWIKAEIHEYVLKNWRIVKVATTKAQRKLFFNLRKAKKRLGWFSDEEVTMVAENLGVSKSDVTEMESRMAAQDPAFDLASDNDDDQDYAPVHYLEDHSSDIASQVENDNFEADNQTRLLAAIKTLDERSQHILQARWLDEEKTTLQELAATYQVSAERIRQLEKNAMNKLKGRMEM, MGSDKIHHHHHHMTNTIPNWIKLNNEIMIQKDGKYQFEKDKEAVHSYFVDYINQNTVFFHDLKEKLDYLIKNDYYEEEFLSKYTFEQIKSIYKIAYSYKFRFPSFMSAFKFYNDYALKTNDKTKILERYEDRVSIVALYCADGDYEKAVEEVHTMMKQEYQPATPTFLNAGRKRRGEMVSCFLLEVGDSLNDISRAIDISMQLSKLGGGVALNLNKLRAKGEAIKDVENATKGVVGVMKLLDNAFRYADQMG, MGSDKIHHHHHHMTNWLPDLTGGAGPLYQRLADSVEAGIDQGVIGAGTKLPPQRDLAYDIGTTVGTVGRAYQLLRERGLVSGEVGRGTYVLGRRADGVKPEAPDVSVEGTRYVDAPQDKLRFDSTAAPDVGQGAVVADVLSRTAQDHPHEISSYTRDFPGRWYEAGARWLARNSFRPAADGIVPTLGTHAAVMAAIAALTTPGDYVAFEHLTYSQISRSAGLIGRRTALVASDDEGLDPADFERVCAQKHPRMIFLMPTAQNPTLTTLSAGRREAIARVAREYNVILIEDDLYGHLTDDPTPLLAEYAPERTIVAGGLSKSVAAGIRGGWLSCPPAYRHRIRVAHKMMTGGMPFLLAEVNTRLVLSGQASDIRKRCIAEISARIAIVRETLAGFAFKSHDKVPFVWLTLPDPWLSGTFKNACLEHGVLIDDEDEFKAGRSEQVFHGVRFGTSQPRQRGDVANGVAVIRRLLDEGRAGYDSFS, MGSDKIHHHHHHMTNYIEEYCAQIRRMGSAGLIAKPILVDQDGTYTMTYVPHEHLNLGARLVLVSTTPGHAHVRLAAAVTEELLQARTPGRVIQRENKRRVELGGQLIRPNLIRMLDHFRAPELVGLPHAAALWNEGFEQFQPLALLPCATTRRGLAFNGTLEDLLAAPMLRAAFEAHFLGALRQMRPDAFYIALGRTAWSGLRHAASRRLLAKHQLLGMMPVPARAGNMVRYFLREISANDLSPNDPVRHRVDWLDAAHTELMANVQKVRAANMPPEGPNYLIA, MGSDKIHHHHHHMTQEDKKLSCTDCALLNCHKKDKTFPQFCLTTHTPEETIEGVNELYRKDDFVAKLSNAAAEIEGTYYGKLTRVEEIMAFAKRIGAKKIGIATCVGLMSEARIFAKILKAKGLESYGIICKVGAVDKTQVGVPEELKVNKGCHESLCNPVLQATLLNEEKTDLNVIVGLCVGHDSLFIKYSEAPVTTLITKDRVLGHNPAAALYASGFYYRRLLQEGDL, MGSDKIHHHHHHMTRLCRTFQTAPAAIPNDNSAKFLVSGLTSKGFQAPDWLVPDIEDGTAPSMKDEAVDNIIEHIPDHADDFAGDILPRVEWAYDDANARERGIEQVTRLAEAVGEELDGFVFPKVGRLDDVRDAAGVIADAERDAGLPEGTLEMAIILETAPGRSDLREICQYATDSRLSGLVFGPVDYTAELGGRTLDGERPRWDGLLEALSNETSAADIVAIGGPFDQLFHERAGVTYYNAEGYADQVAYEATIGIDGSWSLHPKQTEQANRIHMPTVEEMERDLHKIESFNEAKREGTGAVVVDGQMVDEATYKNFANTVKTVRAIDETHPAQTEAYYDDDLLARARDVELIFG, MGSDKIHHHHHHMTSAGTIEDAKGPAELRLALRQMLGEDIVLSETEEMLRFCRDWHGDVTTGTVAVIRPRSTQQVAAAVKACRELGLSIVPQGGNTGLVLGAIPDAPERQVVLSLSRMNRIRKIDPADFSAVVESGCILSELKDAIAKMGMFFPLALGAQGSCQIGGNVSTNAGGVNVLRYGMTRELVLGLEVVLPDGSILEGLSTLRKDNRGIDLKQLFIGAEGTLGIITAVSITLTPYPDHVATALLGLASLEDAIRLYRRARRDCCDLMSAFEFMPPLAFTLAQEAMPDLPIPISAEYPAYVLMEISGSGLVDVDDLMQRFLEGAMEEGLVLDGTIAASQTQARNLWLIREGMNEGQAKRGTHMRTDISVPLSQLASFVEEAEKAVSEALPGAVSVSYGHVGDGNVHLNVLPPAGSTPEERIQLIYKAKTVVNEVLDRYTGSISAEHGIGRLKRPDFDARLPATRRKLLTALKHAVDPEMIMNPGCQLRF, MGSDKIHHHHHHMTSSFTDYCKFFNRILSEVQETQEQAIIKGAHLVSEAVMNGGRFYVFGSGHSHMIAEEIYNRAGGLALVTAILPPELMLHERPNKSTYLERIEGLSKSYLKLHQVTNKDVIMIISNSGRNTVPVEMAIESRNIGAKVIAMTSMKHSQKVTSRHKSGKKLYEYADVVLDNGAPVGDAGFQIANSEIYSGATSDSIGCFLAQALIVETLHLLVQQGFEPPVFKSSNVDGADLYNDKIFNEYVKW, MGSDKIHHHHHHMTSSRSRYLSVMGRELHVTEWGDEAAPALVMWHGLARTGRDFDTLAAHFCDRYRVVCPDTLGRGLSGWSRVPRRDYTLAAYMKHALELLGLLGIDRVTWIGTSMGGALGMLLAAGPLAGRMDRLVMNDIGPTLNPVAVERIRNYLAQHPSFRTMTEFEAYLRQVYRPYGFQTDLEWRRMTETSARRRGDGRITPHYDPAVMRVFAETAGDYEAWGEYDLITCPTLVLRGAESDLLLPEVAQEMTRRGPKARLVTVAGCGHAPSLNVPEQIGVIEDFLA, MGSDKIHHHHHHMTTIFIEKATILDAEKLTEIMTRTFDEEEKRWLCGQGDVIDYNIQPPGYSSVEMMRYSIEELDCYKVIMDGKIIGGIIVTISGKSYGRIDRIFVEPVYQGKGIGSYVIKLIEEEYPSIRIWDLETSSRQLNNHHFYKKMGYETIFKSEDEYCYVKRITVESAEENLIKNKDMKNSQYENCNLANTEYYQVNLKNSSFVGSNMMNMKMSNCNVRQSNFRNINFRNSSYADLNLSGSKFNFVTLGGVQFKDTSLGEDKDPISFNRCDLEGSTISNSNLKNMDIENCDITGMKINGIPIEKLLALYNKVKS, MGSDKIHHHHHHMTTILQLSDLHIGPHNDEKDQKTYDLIHHMMTHYQPDITVLTGDQIWSEGVIDSGRVYKKLMEYLNRYDTQIATTFGNHDTEGHLKRSDLRAIEDQYSTNYVQKNHSLIVDDKEAYTIEVVNNDTVTHVLYVIDGGDYNPFGIGDYDFIRPEHVNWLRETHQAYQTQFQHNFQHNLLFTHIPLQEYREVENIGEYHGIFNEPIACSKINSGLFSQMLLNGDIEGMFCGHDHDNDFTINLYGIRLSFGRIGGYNTYGDLQRGARLIELQPDAIYKSKVLEFDDRF
